Ends that are not written are not given here.

Settings in all cases: both partners purified
Assay [1] concerns the target Wild-type recombinant ficolin H (ficolin-3) (human, UniProt O75636 24-299). The experiment in a line: ELISA; ficolins adsorbed at 10 ug/mL, C1q at 25 nM, BSA at 30 ug/mL; biotinylated PA added at various concentrations in blocking buffer with 0.4 M NaCl, 1 h, room temperature; neutravidin-HRP. (In general: ELISA stands for enzyme-linked immunosorbent assay.)
Assay [2] deals with Wild-type recombinant ficolin M (ficolin-1) (human, UniProt O00602 30-326). Described as above.
Assay [3] addresses Wild-type recombinant ficolin L (ficolin-2) (human, UniProt Q15485 26-313). Described as above.
The target of assay [4] is T1, C1q (UniProt P02745 23-245; P02746 28-253; P02747 29-245).
T1 construct: also called purified C1q; intact C1q
The experiment in a line: cross-linking; C1q and biotinylated PA at a ratio of 1:25 in 0.1 M Na2HPO4, 0.15 M NaCl, pH 8.0, room temperature 2.5 h, with or without 20 uM BS3; SDS-PAGE and blot with streptavidin and anti-C1q.

Assay [5] deals with T1, C1q. The experiment in a line: ELISA; AcPA adsorbed to the plate at 2.5 uM; purified C1q (1 ug) added in 50 mM HEPES pH 7.0 with various concentrations of NaCl, 1 h, room temperature; detected with goat anti-C1q.

T1 sequence (P02745 23-245, chain 1 of 3): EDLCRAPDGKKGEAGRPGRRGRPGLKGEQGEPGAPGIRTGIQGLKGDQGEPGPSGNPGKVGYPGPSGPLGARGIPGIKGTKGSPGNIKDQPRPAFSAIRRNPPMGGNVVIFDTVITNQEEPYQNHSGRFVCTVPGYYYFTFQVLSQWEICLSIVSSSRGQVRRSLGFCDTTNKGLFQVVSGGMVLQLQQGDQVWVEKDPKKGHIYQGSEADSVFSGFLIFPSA
T1 sequence (P02746 28-253, chain 2 of 3): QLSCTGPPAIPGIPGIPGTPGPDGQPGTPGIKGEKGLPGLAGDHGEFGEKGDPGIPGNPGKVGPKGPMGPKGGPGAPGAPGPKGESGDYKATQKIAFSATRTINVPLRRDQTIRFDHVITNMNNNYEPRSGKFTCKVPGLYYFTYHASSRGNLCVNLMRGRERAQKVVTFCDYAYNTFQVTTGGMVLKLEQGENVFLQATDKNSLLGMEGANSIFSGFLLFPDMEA
T1 sequence (P02747 29-245, chain 3 of 3): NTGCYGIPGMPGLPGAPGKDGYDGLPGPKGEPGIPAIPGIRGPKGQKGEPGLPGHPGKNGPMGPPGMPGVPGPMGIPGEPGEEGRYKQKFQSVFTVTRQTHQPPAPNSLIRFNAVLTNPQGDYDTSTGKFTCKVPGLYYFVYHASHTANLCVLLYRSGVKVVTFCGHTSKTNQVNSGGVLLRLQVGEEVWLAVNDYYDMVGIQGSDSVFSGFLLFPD
Chain of Wild-type recombinant ficolin M (ficolin-1) (O00602 30-326): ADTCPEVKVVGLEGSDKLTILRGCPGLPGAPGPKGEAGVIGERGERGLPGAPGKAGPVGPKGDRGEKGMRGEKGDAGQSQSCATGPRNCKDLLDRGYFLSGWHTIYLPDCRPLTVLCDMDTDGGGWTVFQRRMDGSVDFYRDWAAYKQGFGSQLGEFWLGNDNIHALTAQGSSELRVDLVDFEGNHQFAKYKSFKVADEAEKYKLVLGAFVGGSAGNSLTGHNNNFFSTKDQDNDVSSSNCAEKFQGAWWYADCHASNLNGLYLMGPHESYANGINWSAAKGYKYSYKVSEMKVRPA
Chain of Wild-type recombinant ficolin H (ficolin-3) (O75636 24-299): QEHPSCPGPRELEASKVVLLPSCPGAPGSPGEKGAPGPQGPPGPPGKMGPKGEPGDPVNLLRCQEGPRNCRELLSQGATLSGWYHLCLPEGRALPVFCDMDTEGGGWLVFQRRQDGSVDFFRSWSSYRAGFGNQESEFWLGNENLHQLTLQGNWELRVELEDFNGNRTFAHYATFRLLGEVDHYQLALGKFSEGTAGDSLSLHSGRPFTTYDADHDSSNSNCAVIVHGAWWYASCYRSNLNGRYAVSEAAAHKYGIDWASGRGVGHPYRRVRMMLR
Chain of Wild-type recombinant ficolin L (ficolin-2) (Q15485 26-313): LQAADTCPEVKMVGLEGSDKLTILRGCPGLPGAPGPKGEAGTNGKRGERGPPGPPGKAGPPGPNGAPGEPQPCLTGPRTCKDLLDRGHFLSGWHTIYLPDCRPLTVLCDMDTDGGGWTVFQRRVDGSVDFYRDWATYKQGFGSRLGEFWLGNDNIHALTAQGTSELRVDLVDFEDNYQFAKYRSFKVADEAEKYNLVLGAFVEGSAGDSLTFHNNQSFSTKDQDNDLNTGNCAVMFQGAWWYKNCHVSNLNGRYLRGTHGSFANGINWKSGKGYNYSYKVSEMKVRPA

B1: C-terminally biotinylated PA peptide (peptide)
peptide: IALILEPICCQERAA-biotin
modifications: cysteine pairing not given here
notes: Polar Assortant (PA), 15 amino-acid derivative of a human astrovirus type 1 coat protein peptide; Detected by its biotin (streptavidin IR 680 or neutravidin-HRP); source: synthetic peptide, bought: New England Peptide (>=90% purity)
Regarding B1, the binding result in assay [1], in assay [2], in assay [3] and in assay [4] was “binds” each time.

B2: Acetylated PA (AcPA) (peptide)
peptide: IALILEPICCQERAA
modifications: cysteine pairing not given here; also: acetylated, position not given here
notes: Polar Assortant (PA), 15 amino-acid derivative obtained by extensive modification of a 15-residue peptide of the human astrovirus type 1 coat protein; also called acetylated Polar Assortant peptide; PIC1; source: synthetic peptide, bought: New England Peptide (>=90% purity)
As to B2, in assay [5], the binding result is on record as “binds”.

(Values after PMC4511006, “Peptide Inhibitor of Complement C1 (PIC1) Rapidly Inhibits Complement Activation after Intravascular Injection in Rats” (PLoS ONE, 2015).)
